Measurements published in paper PMC12139101, “DNA G-quadruplex structures act as functional elements in α- and β-globin enhancers”.

Assays:
POLR2G [1] = target: T1, POLR2G (human, UniProt P62487 1-172); assay: ELISA; no detectable binding, up to 200 nM; 100 mM K+; ELISA: oligos folded in Tris-HCl pH 7.4, 100 mM KCl; ELISA buffer 100 mM KCl, 50 mM KH2PO4 pH 7.4, 3% BSA block, 1 h (room temperature stated for coating and bl)
POLR2G [2] = target: T1, POLR2G; assay: ELISA; apparent Kd; 100 mM K+; ELISA: oligos folded in Tris-HCl pH 7.4, 100 mM KCl; ELISA buffer 100 mM KCl, 50 mM KH2PO4 pH 7.4, 3% BSA block, 1 h (room temperature stated for coating and bl)

Binder | binding result (POLR2G [1]) | Kd (POLR2G [2])
CCATAATGCCAAGCTTGAGCACTGATTCCGACACTAGACCT (ssDNA) [HS2_G4_bMut] | no binding | 
CCAGAAGCGGGGGTGGGGCACTGACCCCGACAGGGGCCT (structured_DNA) [HS2_G4_WT (bWT)] |  | 48.3 nM
TGTGTGTGGATGTGTGACAAGTGAAATGTGTGA (ssDNA) [HS-40_G4_aMut] | no binding | 
TGGGGGTGGAGGTGGGACAAGGGAAAGGGGTGA (structured_DNA) [HS-40_G4_aWT] |  | 52.8 nM
